Experiments:
purified protein [1] = substrate: O=C(/C=C/c1ccc(O)cc1)c1c(O)cc(O)cc1O; assay: purified protein
purified protein [2] = substrate: O=C(/C=C/c1ccc(O)cc1)c1ccc(O)cc1O; assay: purified protein
[3] = substrate: O=C(/C=C/c1ccc(O)cc1)c1ccc(O)cc1O; assay: Michaelis-Menten kinetics of cyclization; format: biochemical, Medicago sativa

| Protein | Km (purified protein [1]) [µM] | kcat (purified protein [1]) | Km (purified protein [2]) [µM] | kcat (purified protein [2]) | Km [3] [µM] | kcat [3] [s⁻¹] |
| --- | --- | --- | --- | --- | --- | --- |
| MsCHI-2 (Medicago sativa; G95V) (protein) MAASITAITVENLEYPAVVTSPVTGKSYFLGGAGERGLTIEGNFIKFTAIGVYLEDIAVASLAAKWKGKSSEELLETLDFYRDIISGPFEKLIRVSKIRELSGPEYSRKVMENCVAHLKSVGTYGDAEAEAMQKFAEAFKPVNFPPGASVFYRQSPDGILGLSFSPDTSIPEKEAALIENKAVSSAVLETMIGEHAVSPDLKRCLAARLPALLNEGAFKIGN | 5.3 ± 2.6 | 512 ± 26 min⁻¹ | 65 ± 10 | 2.16 ± 0.02 min⁻¹ | – | – |
| MsCHI-2 (Medicago sativa; G95T) (protein) MAASITAITVENLEYPAVVTSPVTGKSYFLGGAGERGLTIEGNFIKFTAIGVYLEDIAVASLAAKWKGKSSEELLETLDFYRDIISGPFEKLIRTSKIRELSGPEYSRKVMENCVAHLKSVGTYGDAEAEAMQKFAEAFKPVNFPPGASVFYRQSPDGILGLSFSPDTSIPEKEAALIENKAVSSAVLETMIGEHAVSPDLKRCLAARLPALLNEGAFKIGN | – | – | – | – | 117 ± 12 | 0.388 ± 0.0283 |
| MsCHI-2 (Medicago sativa) (protein) MAASITAITVENLEYPAVVTSPVTGKSYFLGGAGERGLTIEGNFIKFTAIGVYLEDIAVASLAAKWKGKSSEELLETLDFYRDIISGPFEKLIRGSKIRELSGPEYSRKVMENCVAHLKSVGTYGDAEAEAMQKFAEAFKPVNFPPGASVFYRQSPDGILGLSFSPDTSIPEKEAALIENKAVSSAVLETMIGEHAVSPDLKRCLAARLPALLNEGAFKIGN | 112 ± 28 | 11,180 ± 1,380 min-1 | 8.4 ± 2.0 | 2,250 ± 165 min-1 | – | – |
| MsCHI-2 (Medicago sativa; R36K) (protein) MAASITAITVENLEYPAVVTSPVTGKSYFLGGAGEKGLTIEGNFIKFTAIGVYLEDIAVASLAAKWKGKSSEELLETLDFYRDIISGPFEKLIRGSKIRELSGPEYSRKVMENCVAHLKSVGTYGDAEAEAMQKFAEAFKPVNFPPGASVFYRQSPDGILGLSFSPDTSIPEKEAALIENKAVSSAVLETMIGEHAVSPDLKRCLAARLPALLNEGAFKIGN | 98.3 ± 1.5 | 25.4 ± 1.1 min⁻¹ | – | – | – | – |
| MsCHI-2 (Medicago sativa; K97M) (protein) MAASITAITVENLEYPAVVTSPVTGKSYFLGGAGERGLTIEGNFIKFTAIGVYLEDIAVASLAAKWKGKSSEELLETLDFYRDIISGPFEKLIRGSMIRELSGPEYSRKVMENCVAHLKSVGTYGDAEAEAMQKFAEAFKPVNFPPGASVFYRQSPDGILGLSFSPDTSIPEKEAALIENKAVSSAVLETMIGEHAVSPDLKRCLAARLPALLNEGAFKIGN | 14.5 ± 4.2 | 1,300 ± 154 min-1 | 25.7 ± 2.1 | 658 ± 11 min⁻¹ | – | – |
| AtCHI-1 (Arabidopsis thaliana) (protein) MSSSNACASPSPFPAVTKLHVDSVTFVPSVKSPASSNPLFLGGAGVRGLDIQGKFVIFTVIGVYLEGNAVPSLSVKWKGKTTEELTESIPFFREIVTGAFEKFIKVTMKLPLTGQQYSEKVTENCVAIWKQLGLYTDCEAKAVEKFLEIFKEETFPPGSSILFALSPTGSLTVAFSKDDSIPETGIAVIENKLLAEAVLESIIGKNGVSPGTRLSVAERLSQLMMKNKDEKEVSDHSVEEKLAKEN | 62 ± 9 | 379 ± 35 min⁻¹ | 16.8 ± 3.5 | 0.064 ± 0.005 min⁻¹ | – | – |
| AtCHI-1 (Arabidopsis thaliana; V106G) (protein) MSSSNACASPSPFPAVTKLHVDSVTFVPSVKSPASSNPLFLGGAGVRGLDIQGKFVIFTVIGVYLEGNAVPSLSVKWKGKTTEELTESIPFFREIVTGAFEKFIKGTMKLPLTGQQYSEKVTENCVAIWKQLGLYTDCEAKAVEKFLEIFKEETFPPGSSILFALSPTGSLTVAFSKDDSIPETGIAVIENKLLAEAVLESIIGKNGVSPGTRLSVAERLSQLMMKNKDEKEVSDHSVEEKLAKEN | 19.0 ± 0.5 | 332 ± 34 min⁻¹ | – | – | – | – |

Reference: paper doi:10.1101/457440v1
